Numbering of substitutions follows the chain as printed.
What was measured:
[1] = molecular target: T1, GST-Raf-RBD, GST fusion protein comprising the Ras Binding Domain of human Raf (Raf-RBD, residues 1-149) (human, UniProt P04049 1-149); assay: GST pull-down of in vitro 35S-labeled protein
T1 construct: range 1-149; Immobilised on glutathione Sepharose beads; not shown: Glutathione S-transferase (GST) encoded by the pGEX-4T2 plasmid (Pharmacia)

[2] = molecular target: T2, ERK-1 in lysates of murine thymocytes (mouse, UniProt Q63844 2-380); assay: GST pull-down from murine thymocyte lysates, Western blot with α-ERK-1/-2
T2 construct: Detected together with ERK-2 by α-ERK-1/-2 antibodies; also called ERK-1/-2
T2 sequence (Q63844 2-380 limits assumed): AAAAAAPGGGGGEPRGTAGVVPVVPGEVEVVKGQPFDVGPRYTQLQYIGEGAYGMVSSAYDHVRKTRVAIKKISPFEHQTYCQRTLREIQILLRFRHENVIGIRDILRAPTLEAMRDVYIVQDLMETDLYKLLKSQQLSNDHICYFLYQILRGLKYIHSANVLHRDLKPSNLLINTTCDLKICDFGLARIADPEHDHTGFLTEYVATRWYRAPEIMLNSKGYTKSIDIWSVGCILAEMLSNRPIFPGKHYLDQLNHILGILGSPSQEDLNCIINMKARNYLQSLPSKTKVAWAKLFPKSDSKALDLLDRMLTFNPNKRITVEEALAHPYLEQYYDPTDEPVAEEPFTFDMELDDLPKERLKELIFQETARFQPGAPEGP
Description: (§1) Extracts were prepared from the indicated cell, treated or untreated with DEX (10 microMolar), as previously described (Ayroldi E et al., 2001). GST or GST fusion proteins, loaded on Sepharose beads, were mixed with cell extracts in binding buffer (NaCl 250 milliMolar, HEPES (ph7.5) (pH 7.5) 50 milliMolar, EDTA 0.5 milliMolar, Nonidet P-40 0.1% (v/v), phenylmethylsulfonyl fluoride (PMSF) 0.2 milliMolar, dithiothreitol (DTT) 1 milliMolar, bovine serum albumin (BSA) 100 μg/ml), heated for 5 minutes at 42° C., incubated for 2 hours at 4° C., washed extensively with binding buffer, resuspended in loading buffer and analysed by SDS-PAGE and Western blot as described above. In the case of murine thymocytes extracts, the incubation with the beads was performed overnight and at 4° C. The α-MEK and α-ERK antibodies (Upstate Biotechnology) were used following manufacturer's instructions.

[3] = molecular target: T3, ERK-2 in lysates of murine thymocytes (mouse, UniProt P63085 2-358); assay: as above
T3 construct: Detected together with ERK-1 by α-ERK-1/-2 antibodies; also called ERK-1/-2
Description: as §1

[4] = molecular target: T4, N87A-GILZ, full mouse GILZ in which an Asparagine is mutated in Alanine, in vitro 35S-labeled (mouse, UniProt Q9Z2S7 1-137, [35S]-Methionine label); assay: GST pull-down of in vitro 35S-labeled protein
T4 construct: range 1-137
T4 sequence (looked up): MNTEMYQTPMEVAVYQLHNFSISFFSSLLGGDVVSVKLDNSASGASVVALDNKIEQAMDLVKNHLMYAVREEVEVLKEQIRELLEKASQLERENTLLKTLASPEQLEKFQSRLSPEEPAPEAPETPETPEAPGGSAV

[5] = molecular target: T5, GST alone (Glutathione S-transferase, control) (UniProt P08515 1-218 = GST); assay: GST pull-down of in vitro 35S-labeled protein
T5 construct: Control loaded on glutathione Sepharose beads; also called GST-protein alone
T5 sequence (P08515 whole entry): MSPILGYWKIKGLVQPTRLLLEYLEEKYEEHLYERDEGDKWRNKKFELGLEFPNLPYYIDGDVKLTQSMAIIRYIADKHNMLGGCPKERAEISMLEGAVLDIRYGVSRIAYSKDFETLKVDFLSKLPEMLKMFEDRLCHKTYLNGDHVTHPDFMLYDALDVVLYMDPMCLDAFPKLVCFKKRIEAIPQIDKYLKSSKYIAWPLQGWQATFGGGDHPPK

[6] = molecular target: T5, GST alone (Glutathione S-transferase, …); assay: GST pull-down from thymocyte whole cell lysates, Western blot with α-GILZ
Description: as §1

B1: ΔN-GILZ, GILZ lacking the N-terminal region (first 8 amino acids of mGILZ fused with the residues 73-137), in vitro 35S-labeled (other)
chain: MNTEMYQTVEVLKEQIRELLEKNSQLERENTLLKTLASPEQLEKFQSRLSPEEPAPEAPETPETPEAPGGSAV
modifications: [35S]-Methionine label ; [35S]-methionine isotopic label from in vitro translation; letters unchanged
notes: also called DN-GILZ; 35S-ΔN-GILZ
binding result [1]: no binding

B2: Glutathione S-transferase GILZ fusion protein (GST-GILZ), containing entire mouse GILZ (other, UniProt Q9Z2S7 1-137, looked up)
chain: T4 sequence (looked up) with A87N
notes: range 1-137; Immobilised on glutathione Sepharose beads; Prepared as in Ayroldi E et al., 2001; not shown: Glutathione S-transferase (GST) encoded by the pGEX-4T2 plasmid (Pharmacia)
binding result [2]: no binding
binding result [3]: no binding
binding result [4]: no binding

B3: in vitro 35S-labeled full GILZ (full-length mouse GILZ, in vitro translated) (other, UniProt Q9Z2S7 1-137, looked up)
chain: T4 sequence (looked up) with A87N
modifications: [35S]-Methionine label
notes: range 1-137; also called 35S-GILZ; GILZ full-length protein
binding result [5]: no binding

B4: GILZ, endogenous, in whole cell lysates of murine thymocytes (DEX-treated or untreated) (other, mouse, UniProt Q9Z2S7 1-137, looked up)
chain: T4 sequence (looked up) with A87N
notes: also called mGILZ
binding result [6]: no binding

B5: ΔC-GILZ, GILZ lacking the C-terminal region (first 97 amino acids of mouse GILZ), in vitro 35S-labeled (other)
chain: MNTEMYQTPMEVAVYQLHNFSTSFFSSLLGGDVVSVKLDNSASGASVVALDNKIEQAMDLVKNHLMYAVREEVEVLKEQIRELLEKNSQLERENTLL
modifications: [35S]-methionine isotopic label from in vitro translation; letters unchanged
notes: also called 35S-AC-GILZ
binding result [5]: no binding
